The results in this text go back to patent US20210221876A1.

Experiment [1] deals with h12H4 heavy chain Y52aF mutant. The experiment can be described thus: competitive ELISA; row Y52aF (heavy chain CDR2 mutant of h12H4); reference wt h12H4.
Experiment [2] has as its target h12H4 light chain P95Gz mutant. As to the kind of experiment: competitive ELISA; row P95Gz (light chain CDR3 mutant of h12H4); reference wt h12H4.
Experiment [3] has as its target h12H4 heavy chain P52bG mutant. As to the kind of experiment: competitive ELISA; row P52bG (heavy chain CDR2 mutant of h12H4); reference wt h12H4. (In general: In an ELISA, binding on a coated surface is turned into a signal by an enzyme label.)

Chain of h12H4 light chain P95Gz mutant (VH, as listed by the source, chain 1 of 2): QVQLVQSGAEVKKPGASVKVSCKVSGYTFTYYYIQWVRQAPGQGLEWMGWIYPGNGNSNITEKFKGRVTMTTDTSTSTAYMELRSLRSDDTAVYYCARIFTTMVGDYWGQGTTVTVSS
Chain of h12H4 light chain P95Gz mutant (VL, as listed by the source, chain 2 of 2): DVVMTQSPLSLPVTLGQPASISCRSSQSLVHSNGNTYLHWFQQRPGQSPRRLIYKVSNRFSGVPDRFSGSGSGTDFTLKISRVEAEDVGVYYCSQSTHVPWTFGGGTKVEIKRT
Chain of h12H4 heavy chain P52bG mutant (VH, as listed by the source limits assumed, chain 1 of 2): as the sequence (VH, as listed by the source, chain 1 of 2) above, with P53G counted along it
Chain of h12H4 heavy chain P52bG mutant (VL, as listed by the source limits assumed, chain 2 of 2): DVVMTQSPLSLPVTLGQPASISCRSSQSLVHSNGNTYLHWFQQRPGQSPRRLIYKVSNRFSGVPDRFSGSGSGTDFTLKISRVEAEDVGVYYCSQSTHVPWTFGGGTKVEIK
Chain of h12H4 heavy chain Y52aF mutant (VH, as listed by the source limits assumed, chain 1 of 2): as the sequence (VH, as listed by the source, chain 1 of 2) above, with Y52F counted along it
Chain of h12H4 heavy chain Y52aF mutant (VL, as listed by the source limits assumed, chain 2 of 2): as the sequence (VL, as listed by the source limits assumed, chain 2 of 2) above

B1: peptide … (hCE3C peptide, without the N-terminal Cys) (peptide)
peptide: SVNVDKQPKYEYSL
As for B1, the IC50 ratio (mutant/wt) (ratio (mutant/wt)) in experiment [1] worked out at 1.4; in experiment [2], 1.5; in experiment [3] it was 1.
